In PMC4615104 (Cell Cycle, 2015):

B1: recombinant hMDMX^p60 (natural protein)
chain: MDIPSQDQLKQSAEESSTSRKRTTEDDIPTLPTSEHKCIHSREDEDLIENLAQDETSRLDLGFEEWDVAGLPWWFLGNLRSNYTPRSNGSTDLQTNQDVGTAIVSDTTDDLWFLNESVSEQLGVGIKVEAADTEQTSEEVGKVSDKKVIEVGKNDDLEDSKSLSDDTDVEVTSEDEWQCTECKKFNSPSKRYCFRCWALRKDWYSDCSKLTHSLSTSDITAIPEKENEGNDVPDCRRTISAPVVRPKDAYIKKENSKLFDPCNSVEFLDLAHSSESQETISSMGEQLDNLSEQRTDTENMEDCQNLLKPCSLCEKRPRDGNIIHGRTGHLVTCFHCARRLKKAGASCPICKKEIQLVIKVFIA
B2: recombinant hMDMX^FL (natural protein)
chain: MTSFSTSAQCSTSDSACRISPGQINQVRPKLPLLKILHAAGAQGEMFTVKEVMHYLGQYIMVKQLYDQQEQHMVYCGGDLLGELLGRQSFSVKDPSPLYDMLRKNLVTLATATTDAAQTLALAQDHSMDIPSQDQLKQSAEESSTSRKRTTEDDIPTLPTSEHKCIHSREDEDLIENLAQDETSRLDLGFEEWDVAGLPWWFLGNLRSNYTPRSNGSTDLQTNQDVGTAIVSDTTDDLWFLNESVSEQLGVGIKVEAADTEQTSEEVGKVSDKKVIEVGKNDDLEDSKSLSDDTDVEVTSEDEWQCTECKKFNSPSKRYCFRCWALRKDWYSDCSKLTHSLSTSDITAIPEKENEGNDVPDCRRTISAPVVRPKDAYIKKENSKLFDPCNSVEFLDLAHSSESQETISSMGEQLDNLSEQRTDTENMEDCQNLLKPCSLCEKRPRDGNIIHGRTGHLVTCFHCARRLKKAGASCPICKKEIQLVIKVFIA

Molecular target: recombinant hMDM2 (human, UniProt Q00987 1-491)
Test: ELISA

Sequence of recombinant hMDM2 (Q00987 whole entry): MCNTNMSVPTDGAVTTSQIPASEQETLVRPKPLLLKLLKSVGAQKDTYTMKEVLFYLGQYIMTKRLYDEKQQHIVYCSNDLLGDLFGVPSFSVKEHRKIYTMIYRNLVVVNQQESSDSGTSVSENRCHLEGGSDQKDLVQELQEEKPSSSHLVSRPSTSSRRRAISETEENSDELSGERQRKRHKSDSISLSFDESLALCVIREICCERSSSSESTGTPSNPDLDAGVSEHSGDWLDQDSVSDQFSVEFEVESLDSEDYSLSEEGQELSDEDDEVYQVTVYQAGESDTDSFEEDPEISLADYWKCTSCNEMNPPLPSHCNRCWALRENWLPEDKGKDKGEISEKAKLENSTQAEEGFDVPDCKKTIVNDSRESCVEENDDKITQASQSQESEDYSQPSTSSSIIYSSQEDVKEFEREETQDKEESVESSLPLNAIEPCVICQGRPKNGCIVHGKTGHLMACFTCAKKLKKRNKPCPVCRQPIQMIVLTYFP

binding result | Binder
binds | B1
binds | B2
